Test results from US20230406885A1, “CYCLIC PEPTIDES FOR TRAPPING INTERLEUKIN-1 BETA” (MERCK SHARP & DOHME LLC, priority 2022, published 2023).
*1 amine or outer side, *2 acyl side, *3 side chain or, on linkers, in order; H or OH if unused. [ ]: non-standard residue; d: D form. TyrEtNAc = L-tyrosine O-ethyl acetamide, (S)-3-(4-(2-acetamidoethoxy)phenyl)-2-aminopropanoic acid, CC(=O)NCCOc1ccc(C[C@H](N[*:1])C(=O)[*:2])cc1; 3Pal4Ph4CO2H = (S)-4-(5-(2-amino-2-carboxyethyl)pyridin-2-yl)benzoic acid, O=C([C@H](Cc1ccc(-c2ccc(C(=O)[*:3])cc2)nc1)N[*:1])[*:2]; TyrEtMor = (S)-2-amino-3-(4-(2-morpholinoethoxy)phenyl)propanoic acid, O=C([C@H](Cc1ccc(OCCN2CCOCC2)cc1)N[*:1])[*:2]; Pro(trans-4-NH2) = O=C([C@@H]1C[C@@H](N[*:3])CN1[*:1])[*:2]; Bip(4'-COOH) = N[C@@H](Cc1ccc(-c2ccc(C(=O)O)cc2)cc1)C(=O)O; 1Nal(3S-Me) = C[C@@H](c1cccc2ccccc12)[C@H](N)C(=O)O; Ala(indazol-1-yl) = N[C@@H](Cn1ncc2ccccc21)C(=O)O; Ala(indolin-1-yl) = N[C@@H](CN1CCc2ccccc21)C(=O)O; Ala(pyrimidin-5-yl) = N[C@@H](Cc1cncnc1)C(=O)O; Phe(4-COOH) = N[C@@H](Cc1ccc(C(=O)O)cc1)C(=O)O; Trp(7-aza) = N[C@@H](Cc1c[nH]c2ncccc12)C(=O)O; h3Pal(5-CN) = N#Cc1cncc(CC[C@H](N)C(=O)O)c1; 1Nal = N[C@@H](Cc1cccc2ccccc12)C(=O)O; hTyr = N[C@@H](CCc1ccc(O)cc1)C(=O)O; hPhe = N[C@@H](CCc1ccccc1)C(=O)O; dDab = NCC[C@@H](N)C(=O)O; dNMeA = CN[C@H](C)C(=O)O; Dab = NCC[C@H](N)C(=O)O; Dap = NC[C@H](N)C(=O)O; Aib = CC(C)(N)C(=O)O

B1: SEQ ID NO: 114 (peptide)
peptide: cyclo([TyrEtNAc]W[Phe(4-COOH)]G[Pro(trans-4-NH2)][1Nal(3S-Me)]D[dNMeA]G[Bip(4'-COOH)][Trp(7-aza)]G[dDab][h3Pal(5-CN)])
SMILES: CC(=O)NCCOc1ccc(C[C@@H]2NC(=O)[C@H](CCc3cncc(C#N)c3)NC(=O)[C@@H](CCN)NC(=O)CNC(=O)[C@H](Cc3c[nH]c4ncccc34)NC(=O)[C@H](Cc3ccc(-c4ccc(C(=O)O)cc4)cc3)NC(=O)CNC(=O)[C@@H](C)N(C)C(=O)[C@H](CC(=O)O)NC(=O)[C@H]([C@@H](C)c3cccc4ccccc34)NC(=O)[C@@H]3C[C@@H](N)CN3C(=O)CNC(=O)[C@H](Cc3ccc(C(=O)O)cc3)NC(=O)[C@H](Cc3c[nH]c4ccccc34)NC2=O)cc1
B2: SEQ ID NO: 14 (peptide)
peptide: cyclo([Bip(4'-COOH)]W[Phe(4-COOH)]G[Pro(trans-4-NH2)][1Nal(3S-Me)]D[dNMeA]G[Bip(4'-COOH)][Ala(indolin-1-yl)][Dap][dA][hTyr])
SMILES: C[C@@H]1C(=O)NCC(=O)N[C@@H](Cc2ccc(-c3ccc(C(=O)O)cc3)cc2)C(=O)N[C@@H](CN2CCc3ccccc32)C(=O)N[C@@H](CN)C(=O)N[C@H](C)C(=O)N[C@@H](CCc2ccc(O)cc2)C(=O)N[C@@H](Cc2ccc(-c3ccc(C(=O)O)cc3)cc2)C(=O)N[C@@H](Cc2c[nH]c3ccccc23)C(=O)N[C@@H](Cc2ccc(C(=O)O)cc2)C(=O)NCC(=O)N2C[C@H](N)C[C@H]2C(=O)N[C@@H]([C@@H](C)c2cccc3ccccc23)C(=O)N[C@@H](CC(=O)O)C(=O)N1C
B3: SEQ ID NO: 119 (peptide)
peptide: cyclo([TyrEtNAc]W[Phe(4-COOH)]G[Pro(trans-4-NH2)][1Nal(3S-Me)]D[dNMeA]G[Bip(4'-COOH)]W[Dap][dA][hTyr])
SMILES: CC(=O)NCCOc1ccc(C[C@@H]2NC(=O)[C@H](CCc3ccc(O)cc3)NC(=O)[C@@H](C)NC(=O)[C@H](CN)NC(=O)[C@H](Cc3c[nH]c4ccccc34)NC(=O)[C@H](Cc3ccc(-c4ccc(C(=O)O)cc4)cc3)NC(=O)CNC(=O)[C@@H](C)N(C)C(=O)[C@H](CC(=O)O)NC(=O)[C@H]([C@@H](C)c3cccc4ccccc34)NC(=O)[C@@H]3C[C@@H](N)CN3C(=O)CNC(=O)[C@H](Cc3ccc(C(=O)O)cc3)NC(=O)[C@H](Cc3c[nH]c4ccccc34)NC2=O)cc1
B4: SEQ ID NO: 120 (peptide)
peptide: cyclo([TyrEtNAc]W[Phe(4-COOH)]G[Pro(trans-4-NH2)][1Nal(3S-Me)]D[dNMeA]G[Bip(4'-COOH)]W[Dap][dA][TyrEtMor])
SMILES: CC(=O)NCCOc1ccc(C[C@@H]2NC(=O)[C@H](Cc3ccc(OCCN4CCOCC4)cc3)NC(=O)[C@@H](C)NC(=O)[C@H](CN)NC(=O)[C@H](Cc3c[nH]c4ccccc34)NC(=O)[C@H](Cc3ccc(-c4ccc(C(=O)O)cc4)cc3)NC(=O)CNC(=O)[C@@H](C)N(C)C(=O)[C@H](CC(=O)O)NC(=O)[C@H]([C@@H](C)c3cccc4ccccc34)NC(=O)[C@@H]3C[C@@H](N)CN3C(=O)CNC(=O)[C@H](Cc3ccc(C(=O)O)cc3)NC(=O)[C@H](Cc3c[nH]c4ccccc34)NC2=O)cc1
B5: SEQ ID NO: 15 (peptide)
peptide: cyclo([Bip(4'-COOH)]W[Phe(4-COOH)]G[Pro(trans-4-NH2)][1Nal(3S-Me)]D[dNMeA]G[Bip(4'-COOH)][1Nal][Dab][Aib]G)
SMILES: C[C@@H]1C(=O)NCC(=O)N[C@@H](Cc2ccc(-c3ccc(C(=O)O)cc3)cc2)C(=O)N[C@@H](Cc2cccc3ccccc23)C(=O)N[C@@H](CCN)C(=O)NC(C)(C)C(=O)NCC(=O)N[C@@H](Cc2ccc(-c3ccc(C(=O)O)cc3)cc2)C(=O)N[C@@H](Cc2c[nH]c3ccccc23)C(=O)N[C@@H](Cc2ccc(C(=O)O)cc2)C(=O)NCC(=O)N2C[C@H](N)C[C@H]2C(=O)N[C@@H]([C@@H](C)c2cccc3ccccc23)C(=O)N[C@@H](CC(=O)O)C(=O)N1C
B6: SEQ ID NO: 117 (peptide)
peptide: cyclo([TyrEtNAc]W[Phe(4-COOH)]G[Pro(trans-4-NH2)][1Nal(3S-Me)]D[dNMeA]G[Bip(4'-COOH)]W[Dap][Aib][hTyr])
SMILES: CC(=O)NCCOc1ccc(C[C@@H]2NC(=O)[C@H](CCc3ccc(O)cc3)NC(=O)C(C)(C)NC(=O)[C@H](CN)NC(=O)[C@H](Cc3c[nH]c4ccccc34)NC(=O)[C@H](Cc3ccc(-c4ccc(C(=O)O)cc4)cc3)NC(=O)CNC(=O)[C@@H](C)N(C)C(=O)[C@H](CC(=O)O)NC(=O)[C@H]([C@@H](C)c3cccc4ccccc34)NC(=O)[C@@H]3C[C@@H](N)CN3C(=O)CNC(=O)[C@H](Cc3ccc(C(=O)O)cc3)NC(=O)[C@H](Cc3c[nH]c4ccccc34)NC2=O)cc1
B7: SEQ ID NO: 13 (peptide)
peptide: cyclo([Bip(4'-COOH)]W[Phe(4-COOH)]G[Pro(trans-4-NH2)][1Nal(3S-Me)]D[dNMeA]G[Bip(4'-COOH)][Ala(indazol-1-yl)][Dap][dA][hTyr])
SMILES: C[C@@H]1C(=O)NCC(=O)N[C@@H](Cc2ccc(-c3ccc(C(=O)O)cc3)cc2)C(=O)N[C@@H](Cn2ncc3ccccc32)C(=O)N[C@@H](CN)C(=O)N[C@H](C)C(=O)N[C@@H](CCc2ccc(O)cc2)C(=O)N[C@@H](Cc2ccc(-c3ccc(C(=O)O)cc3)cc2)C(=O)N[C@@H](Cc2c[nH]c3ccccc23)C(=O)N[C@@H](Cc2ccc(C(=O)O)cc2)C(=O)NCC(=O)N2C[C@H](N)C[C@H]2C(=O)N[C@@H]([C@@H](C)c2cccc3ccccc23)C(=O)N[C@@H](CC(=O)O)C(=O)N1C
B8: SEQ ID NO: 12 (peptide)
peptide: cyclo([Bip(4'-COOH)]W[Phe(4-COOH)]G[Pro(trans-4-NH2)][1Nal(3S-Me)]D[dNMeA]G[3Pal4Ph4CO2H]W[Dap][dA][hTyr])
SMILES: C[C@@H]1C(=O)NCC(=O)N[C@@H](Cc2ccc(-c3ccc(C(=O)O)cc3)nc2)C(=O)N[C@@H](Cc2c[nH]c3ccccc23)C(=O)N[C@@H](CN)C(=O)N[C@H](C)C(=O)N[C@@H](CCc2ccc(O)cc2)C(=O)N[C@@H](Cc2ccc(-c3ccc(C(=O)O)cc3)cc2)C(=O)N[C@@H](Cc2c[nH]c3ccccc23)C(=O)N[C@@H](Cc2ccc(C(=O)O)cc2)C(=O)NCC(=O)N2C[C@H](N)C[C@H]2C(=O)N[C@@H]([C@@H](C)c2cccc3ccccc23)C(=O)N[C@@H](CC(=O)O)C(=O)N1C
B9: SEQ ID NO: 116 (peptide)
peptide: cyclo([TyrEtNAc]W[Phe(4-COOH)]G[Pro(trans-4-NH2)][1Nal(3S-Me)]D[dNMeA]G[Bip(4'-COOH)]W[Dab][dA][hTyr])
SMILES: CC(=O)NCCOc1ccc(C[C@@H]2NC(=O)[C@H](CCc3ccc(O)cc3)NC(=O)[C@@H](C)NC(=O)[C@H](CCN)NC(=O)[C@H](Cc3c[nH]c4ccccc34)NC(=O)[C@H](Cc3ccc(-c4ccc(C(=O)O)cc4)cc3)NC(=O)CNC(=O)[C@@H](C)N(C)C(=O)[C@H](CC(=O)O)NC(=O)[C@H]([C@@H](C)c3cccc4ccccc34)NC(=O)[C@@H]3C[C@@H](N)CN3C(=O)CNC(=O)[C@H](Cc3ccc(C(=O)O)cc3)NC(=O)[C@H](Cc3c[nH]c4ccccc34)NC2=O)cc1
B10: SEQ ID NO: 118 (peptide)
peptide: cyclo([TyrEtNAc]W[Phe(4-COOH)]G[Pro(trans-4-NH2)][1Nal(3S-Me)]D[dNMeA]G[Bip(4'-COOH)]W[Dap][dA]A)
SMILES: CC(=O)NCCOc1ccc(C[C@@H]2NC(=O)[C@H](C)NC(=O)[C@@H](C)NC(=O)[C@H](CN)NC(=O)[C@H](Cc3c[nH]c4ccccc34)NC(=O)[C@H](Cc3ccc(-c4ccc(C(=O)O)cc4)cc3)NC(=O)CNC(=O)[C@@H](C)N(C)C(=O)[C@H](CC(=O)O)NC(=O)[C@H]([C@@H](C)c3cccc4ccccc34)NC(=O)[C@@H]3C[C@@H](N)CN3C(=O)CNC(=O)[C@H](Cc3ccc(C(=O)O)cc3)NC(=O)[C@H](Cc3c[nH]c4ccccc34)NC2=O)cc1
B11: SEQ ID NO: 115 (peptide)
peptide: cyclo([TyrEtNAc]W[Phe(4-COOH)]G[Pro(trans-4-NH2)][1Nal(3S-Me)]D[dNMeA]G[Bip(4'-COOH)]W[Dab][dA][hPhe])
SMILES: CC(=O)NCCOc1ccc(C[C@@H]2NC(=O)[C@H](CCc3ccccc3)NC(=O)[C@@H](C)NC(=O)[C@H](CCN)NC(=O)[C@H](Cc3c[nH]c4ccccc34)NC(=O)[C@H](Cc3ccc(-c4ccc(C(=O)O)cc4)cc3)NC(=O)CNC(=O)[C@@H](C)N(C)C(=O)[C@H](CC(=O)O)NC(=O)[C@H]([C@@H](C)c3cccc4ccccc34)NC(=O)[C@@H]3C[C@@H](N)CN3C(=O)CNC(=O)[C@H](Cc3ccc(C(=O)O)cc3)NC(=O)[C@H](Cc3c[nH]c4ccccc34)NC2=O)cc1
B12: SEQ ID NO: 113 (peptide)
peptide: cyclo([TyrEtNAc]W[Phe(4-COOH)]G[Pro(trans-4-NH2)][1Nal(3S-Me)]D[dNMeA]G[Bip(4'-COOH)][Ala(pyrimidin-5-yl)]G[dDab][h3Pal(5-CN)])
SMILES: CC(=O)NCCOc1ccc(C[C@@H]2NC(=O)[C@H](CCc3cncc(C#N)c3)NC(=O)[C@@H](CCN)NC(=O)CNC(=O)[C@H](Cc3cncnc3)NC(=O)[C@H](Cc3ccc(-c4ccc(C(=O)O)cc4)cc3)NC(=O)CNC(=O)[C@@H](C)N(C)C(=O)[C@H](CC(=O)O)NC(=O)[C@H]([C@@H](C)c3cccc4ccccc34)NC(=O)[C@@H]3C[C@@H](N)CN3C(=O)CNC(=O)[C@H](Cc3ccc(C(=O)O)cc3)NC(=O)[C@H](Cc3c[nH]c4ccccc34)NC2=O)cc1

Molecular target: Recombinant human IL-1β (BioLegend 579404) (human, UniProt P01584 117-269)
Assay: cell-based or functional assay

Row | Binder | MRC5 IC50 [pM]
1 | B1 | 23.3
2 | B2 | 29.7
3 | B3 | 60.2
4 | B4 | 860
5 | B5 | 654
6 | B6 | 160
7 | B7 | 31
8 | B8 | 55.1
9 | B9 | 492
10 | B10 | 973
11 | B11 | 85
12 | B12 | 91.8
